Assay results from patent US12723255B2, “Herbicide tolerance genes and methods of use thereof” (priority 2014, dated 2026).

How the values were obtained:
[1] = enzyme activity assay at 23° C. with purified enzyme; assay type: biochemical; details: wild-type set at 100%
Protocol: The enzyme activity of MON-HT protein variants with haloxyfop, fenoxaprop, fluazifop, and dichlorprop as substrates was determined using the enzyme activity assay conducted at 23° C. with purified enzyme. The activity was recorded as the maximum activity as a percentage of the wild-type enzyme's activity, which was set at 100%.

F1 hybrid maize plants [2] = test: efficacy field trial with segregating F1 hybrid plants; assay type: in vivo; details: for % Injury from V4 2,4-D / % Injury from V8 2,4-D: 2,4-D amine 2× at VE-V2 (plus quizalofop-P 0.5×), V4, V8; for % Injury from V4 Quizalofop / % Injury from V8 Quizalofop: quizalofop-P 2× at VE-V2, V4, V8
Protocol: Ten unique engineered proteins optimized for activity at higher temperatures were selected for maize transformation and analysis in plants. DNA constructs were produced for expressing these engineered proteins with codon usage optimized for monocot expression using methods known to those skilled in the art. Enhancers, promoters, leaders, introns, CTPs, and 3′UTRs were tested in various combinations with the engineered proteins in these DNA constructs. The DNA constructs were used to transform immature maize (LH244) embryos with these vectors using Agrobacterium tumifaciens and standard methods known in the art. Regenerated R0 transgenic plantlets were grown in the green house.
Transgenic R0 maize plants were screened by the application of quizalofop-P (2×) plus 2,4-D (2×) at 7 to 10 days following transplant into plugs (generally corresponding to V3-V4 growth stage). All constructs tested produced plants containing unique events that passed the RO screen. The R0 plants were selfed to generate R1 homozygous seed and the R0 was also used as the male to cross with inbred plants containing maize event MON89034 to generate segregating F1 hybrid seed for efficacy field trials.
An efficacy field trial was conducted with segregating F1 hybrid plants, with 50% hemizygous and 50% null for the transgene. Tolerance to quizalofop-P (2×) plus 2,4-D (2×) was assessed using two herbicide application regimens: (1) quizalofop-P (Assure II) at 0.16 lb ai/acre (2×) plus 0.25% v/v non-ionic surfactant (NIS) applied at VE-V2 growth stage followed by the same at V4 growth stage followed by the same at V8 growth stage and (2) 2,4-D amine at 2 lb ae/acre (2×) plus quizalofop-P at 0.04 lb ai/acre (0.5×) plus 0.25% v/v NIS applied at VE-V2 growth stage followed by 2,4-D amine at 2 lb ae/acre (2×) plus 0.25% v/v NIS applied at V4 growth stage followed by the same at V8 growth stage. The 50% of the plants that were null for transgene were removed by the first quizalofop-P application at VE-V2 growth stage. Plots were visually rated 10-14 days after application for crop injury on a scale of 0 to 100 with “0” being none and “100” being complete crop destruction. […] The percentage injury rating with 2× application of 2,4-D at V8 growth stage ranged from a high of 40% to a low of 0. Similarly, the percentage injury rating with 2× application of quizalofop-P at V8 growth stage ranged from a high of 90% to a low of 0. Variation in injury rating between plants expressing the same protein is likely due to variations in construct design or transgene insertion location.

F1 hybrid maize plants [3] = test: efficacy field trial for quizalofop-P tolerance and clethodim sensitivity; assay type: in vivo; details: for tolerance to the quizalofop-P application: 1.28 lb ai/acre (16×); for average injury rating, V4 Growth Stage, 4x Quizalofop / average injury rating, V8 Growth Stage, 4x Quizalofop / average injury rating, V4 Growth Stage, 8x Quizalofop / average injury rating, V8 Growth Stage, 8x Quizalofop / average injury rating, V4 Growth Stage, 16x Quizalofop / average injury rating, V8 Growth Stage, 16x Quizalofop / average injury rating, V8 Growth Stage, 1x Clethodim: scale 0 to 100; for average injury rating, V4 Growth Stage, 4x Quizalofop / average injury rating, V8 Growth Stage, 4x Quizalofop: 0.32 lb ai/acre at VE-V2, V4, V8; for average injury rating, V4 Growth Stage, 4x Quizalofop / average injury rating, V8 Growth Stage, 4x Quizalofop / average injury rating, V4 Growth Stage, 8x Quizalofop / average injury rating, V8 Growth Stage, 8x Quizalofop / average injury rating, V4 Growth Stage, 16x Quizalofop / average injury rating, V8 Growth Stage, 16x Quizalofop: with CTP unless label says no CTP; for average injury rating, V4 Growth Stage, 8x Quizalofop / average injury rating, V8 Growth Stage, 8x Quizalofop: 0.64 lb ai/acre at VE-V2, V4, V8; for average injury rating, V4 Growth Stage, 16x Quizalofop / average injury rating, V8 Growth Stage, 16x Quizalofop: 1.28 lb ai/acre at VE-V2, V4, V8; for average injury rating, V8 Growth Stage, 1x Clethodim: clethodim 0.25 lb ai/acre at V8, volunteer control
How it was run: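 F1 hybrids of MON89034 × R1 plants carrying MON-HT constructs, NK603×MON89034 control, at two sites. Quizalofop-P at 0.32, 0.64 or 1.28 lb ai/acre + 0.25% v/v NIS at VE-V2, V4 and V8; clethodim 0.25 lb ai/acre + NIS at V8. Injury rated visually 0–100 at 10-14 days after application.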

F1 hybrid maize plants [4] = test: efficacy field trial for 2,4-D tolerance; assay type: in vivo; details: for average injury rating, V4 Growth Stage, 4x 2,4-D / average injury rating, V8 Growth Stage, 4x 2,4-D: 4 lb ae/acre at VE-V2, V4, V8; for average injury rating, V4 Growth Stage, 8x 2,4-D / average injury rating, V8 Growth Stage, 8x 2,4-D: 8 lb ae/acre at VE-V2, V4, V8; for average injury rating, V4 Growth Stage, 16x 2,4-D / average injury rating, V8 Growth Stage, 16x 2,4-D: 16 lb ae/acre at VE-V2, V4, V8
How it was run: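 F1 hybrid maize carrying MON89034 crossed with MON-HT events, NK603×MON89034 hybrids as control, grown at two field locations. 2,4-D amine at 2, 4, 8 or 16 lb ac/acre plus 0.25% v/v NIS applied at VE-V2, V4 and V8; plots visually rated for injury after V4 and V8 applications.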

[5] = scale 0 to 100, 2 lb ae/acre at VE-V2, V4, V8, with CTP unless label says no CTP
[6] = scale 0 to 100, with CTP unless label says no CTP
[7] = scale 0 to 100, with CTP unless label says no CTP, listed as MON-HT2 (no CTP)

B1: MON-HT2: engineered oxygenase protein, amino acid sequence SEQ ID NO:18 (protein)
chain: MHAALTPLTNKYRFIDVQPLTGVLGAEITGVDLREPLDDSTWNEILDAFHTYQVIYFPGQAITNEQHIAFSRRFGPVDPVPLLKSIEGYPEVQMIRREANESSRVIGDDWHSDSTFLDAPPAAVVMRAIEVPEYGGDTGFLSMYSAWETLSPTMQATIEGLNVVHSATKVFGSLYQATNWRFSNTSVKVMDVDAGDRETVHPLVVTHPVTGRRALYCNQVYCQKIQGMTDAESKSLLQFLYEHATKFDFTCRVRWKKDQVLVWDNLCTMHRAAPDYAGKFRYLTRTTVAGDKPSR
- maximum activity as a percentage of the wild-type enzyme's activity, Dichlorprop [1]: 92%
- % Injury from V4 2,4-D (F1 hybrid maize plants [2]; CTP A): 20%
- % Injury from V8 2,4-D (F1 hybrid maize plants [2]; CTP A): 34.17%
- % Injury from V4 Quizalofop (F1 hybrid maize plants [2]; CTP A): 0%
- % Injury from V8 Quizalofop (F1 hybrid maize plants [2]; CTP A): 0%
- % Injury from V4 2,4-D (F1 hybrid maize plants [2]; CTP B): 10.56%
- % Injury from V8 2,4-D (F1 hybrid maize plants [2]; CTP B): 13.33%
- % Injury from V4 Quizalofop (F1 hybrid maize plants [2]; CTP B): 11.67%
- % Injury from V8 Quizalofop (F1 hybrid maize plants [2]; CTP B): 11.67%
- % Injury from V4 2,4-D (F1 hybrid maize plants [2]; CTP C): 12%
- % Injury from V8 2,4-D (F1 hybrid maize plants [2]; CTP C): 12%
- % Injury from V4 Quizalofop (F1 hybrid maize plants [2]; CTP C): 14.33%
- % Injury from V8 Quizalofop (F1 hybrid maize plants [2]; CTP C): 14.33%
- % Injury from V4 2,4-D (F1 hybrid maize plants [2]; CTP None): 20%
- % Injury from V8 2,4-D (F1 hybrid maize plants [2]; CTP None): 33.75%
- % Injury from V4 Quizalofop (F1 hybrid maize plants [2]; CTP None): 0%
- % Injury from V8 Quizalofop (F1 hybrid maize plants [2]; CTP None): 0%
- tolerance to the quizalofop-P application (F1 hybrid maize plants [3]; operably linked to a CTP, FIG. 5A): robust tolerance
- average injury rating, V4 Growth Stage, 4x Quizalofop (F1 hybrid maize plants [3]): 1.5
- average injury rating, V8 Growth Stage, 4x Quizalofop (F1 hybrid maize plants [3]): 2.5
- average injury rating, V4 Growth Stage, 4x Quizalofop (F1 hybrid maize plants [3]; listed as MON-HT2 (no CTP)): 42.5
- average injury rating, V8 Growth Stage, 4x Quizalofop (F1 hybrid maize plants [3]; listed as MON-HT2 (no CTP)): 16.3
- average injury rating, V4 Growth Stage, 8x Quizalofop (F1 hybrid maize plants [3]): 0.8
- average injury rating, V8 Growth Stage, 8x Quizalofop (F1 hybrid maize plants [3]): 3.8
- average injury rating, V4 Growth Stage, 8x Quizalofop (F1 hybrid maize plants [3]; listed as MON-HT2 (no CTP)): 76.3
- average injury rating, V8 Growth Stage, 8x Quizalofop (F1 hybrid maize plants [3]; listed as MON-HT2 (no CTP)): 52.5
- average injury rating, V4 Growth Stage, 16x Quizalofop (F1 hybrid maize plants [3]): 10.0
- average injury rating, V8 Growth Stage, 16x Quizalofop (F1 hybrid maize plants [3]): 4.8
- average injury rating, V4 Growth Stage, 16x Quizalofop (F1 hybrid maize plants [3]; listed as MON-HT2 (no CTP)): 82.5
- average injury rating, V8 Growth Stage, 16x Quizalofop (F1 hybrid maize plants [3]; listed as MON-HT2 (no CTP)): 77.5
- average injury rating, V8 Growth Stage, 1x Clethodim (F1 hybrid maize plants [3]): 93.3
- average injury rating, V8 Growth Stage, 1x Clethodim (F1 hybrid maize plants [3]; listed as MON-HT2 (no CTP)): 92.0
- tolerance to the quizalofop-P application (F1 hybrid maize plants [3]; without a CTP, FIG. 5B): moderate to poor tolerance
- average injury rating, V4 Growth Stage, 2x 2,4-D (F1 hybrid maize plants [4]; [5]): 1.3
- average injury rating, V8 Growth Stage, 2x 2,4-D (F1 hybrid maize plants [4]; [5]): 2.5
- average injury rating, V8 Growth Stage, 2x 2,4-D (F1 hybrid maize plants [4]; scale 0 to 100, 2 lb ae/acre at VE-V2, V4, V8, with CTP unless label says no CTP, listed as MON-HT2 (no CTP)): 5.0
- average injury rating, V4 Growth Stage, 4x 2,4-D (F1 hybrid maize plants [4]; [6]): 0.0
- average injury rating, V8 Growth Stage, 4x 2,4-D (F1 hybrid maize plants [4]; [6]): 3.3
- average injury rating, V4 Growth Stage, 4x 2,4-D (F1 hybrid maize plants [4]; [7]): 2.5
- average injury rating, V8 Growth Stage, 4x 2,4-D (F1 hybrid maize plants [4]; [7]): 8.8
- average injury rating, V4 Growth Stage, 8x 2,4-D (F1 hybrid maize plants [4]; [6]): 4.5
- average injury rating, V8 Growth Stage, 8x 2,4-D (F1 hybrid maize plants [4]; [6]): 10.0
- average injury rating, V4 Growth Stage, 8x 2,4-D (F1 hybrid maize plants [4]; [7]): 13.8
- average injury rating, V8 Growth Stage, 8x 2,4-D (F1 hybrid maize plants [4]; [7]): 13.8
- average injury rating, V4 Growth Stage, 16x 2,4-D (F1 hybrid maize plants [4]; [6]): 7.5
- average injury rating, V8 Growth Stage, 16x 2,4-D (F1 hybrid maize plants [4]; [6]): 15.0
- average injury rating, V4 Growth Stage, 16x 2,4-D (F1 hybrid maize plants [4]; [7]): 21.3
- average injury rating, V8 Growth Stage, 16x 2,4-D (F1 hybrid maize plants [4]; [7]): 25.0
- injury rating after 2,4-D application at V4 growth stage at 8× (F1 hybrid maize plants [4]; without the CTP): 13.75%
- injury rating after 2,4-D application at V4 growth stage at 16× (F1 hybrid maize plants [4]; without the CTP): 21.25%
